Experiments:
N-Ras.mant-GMPPNP = biological target: T1, N-Ras.mant-GMPPNP (Homo sapiens, UniProt P01111); assay: Fluorescence anisotropy titration of PI3Kγ 144-1102 into N-Ras.mant-GMPPNP; format: binding; settings: mutants in the 144-1102 construct, FIG. 2A
T1 construct: fluorescence anisotropy of full length, unmodified N-Ras.mant-GMPPNP
Method: Mant-nucleotides were synthesised as described previously (Jameson and Eccleston, 1997). N-Ras and H-Ras mutants were loaded with mant-GMPPNP as in (Moore et al., 1993), gel filtered into running buffer (20 mM Tris pH 7.5, 2 mM MgCl2, 1 mM DTT), and frozen at −80° C. The concentration of Ras.mant-GMPPNP was determined by measuring the absorbance of the mant group at […] with ε=5700 M^−1 cm^−1 (Hiratsuka, 1983). For binding assays, the 144-1102 human PI3Kγ was titrated into a 1 μM solution of fill length, unmodified N-Ras.mant-GMPPNP. Data were collected with SLM 8000 S and ISS PC1 spectrofluorimeters, set up in the T-format and L-format, respectively, with prism polarizers. All measurements were taken at 20° C. with a λex of 366 nm. Both emission PMTs were fitted with 399 nm cutoff filters. Five measurements of each data point were obtained and averaged. Data were fitted to the binding equation.

N-Ras.GDP = N-Ras.GDP (Homo sapiens, UniProt P01111); assay: Binding of PI3Kγ constructs to N-Ras.GDP
Sequence of N-Ras.GDP (P01111 whole entry): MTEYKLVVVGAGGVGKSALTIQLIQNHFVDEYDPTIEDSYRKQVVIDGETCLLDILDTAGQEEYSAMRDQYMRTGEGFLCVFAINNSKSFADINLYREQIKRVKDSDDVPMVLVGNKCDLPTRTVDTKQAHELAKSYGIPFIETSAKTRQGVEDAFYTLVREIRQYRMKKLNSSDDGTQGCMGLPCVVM

T1 sequence (P01111 whole entry): as above

B1: V223K: tighter-binding PI3Kγ mutant used for co-crystallisation with Ras (protein, UniProt P48736 1-1102, looked up, variant V223K)
Phosphatidylinositol …: MELENYKQPVVLREDNCRRRRRMKPRSAAASLSSMELIPIEFVLPTSQRKCKSPETALLHVAGHGNVEQMKAQVWLRALETSVAADFYHRLGPHHFLLLYQKKGQWYEIYDKYQVVQTLDCLRYWKATHRSPGQIHLVQRHPPSEESQAFQRQLTALIGYDVTDVSNVHDDELEFTRRGLVTPRMAEVASRDPKLYAMHPWVTSKPLPEYLWKKIANNCIFIKIHRSTTSQTIKVSPDDTPGAILQSFFTKMAKKKSLMDIPESQSEQDFVLRVCGRDEYLVGETPIKNFQWVRHCLKNGEEIHVVLDTPPDPALDEVRKEEWPLVDDCTGVTGYHEQLTIHGKDHESVFTVSLWDCDRKFRVKIRGIDIPVLPRNTDLTVFVEANIQHGQQVLCQRRTSPKPFTEEVLWNVWLEFSIKIKDLPKGALLNLQIYCGKAPALSSKASAESPSSESKGKVQLLYYVNLLLIDHRFLLRRGEYVLHMWQISGKGEDQGSFNADKLTSATNPDKENSMSISILLDNYCHPIALPKHQPTPDPEGDRVRAEMPNQLRKQLEAIIATDPLNPLTAEDKELLWHFRYESLKHPKAYPKLFSSVKWGQQEIVAKTYQLLARREVWDQSALDVGLTMQLLDCNFSDENVRAIAVQKLESLEDDDVLHYLLQLVQAVKFEPYHDSALARFLLKRGLRNKRIGHFLFWFLRSEIAQSRHYQQRFAVILEAYLRGCGTAMLHDFTQQVQVIEMLQKVTLDIKSLSAEKYDVSSQVISQLKQKLENLQNSQLPESFRVPYDPGLKAGALAIEKCKVMASKKKPLWLEFKCADPTALSNETIGIIFKHGDDLRQDMLILQILRIMESIWETESLDLCLLPYGCISTGDKIGMIEIVKDATTIAKIQQSTVGNTGAFKDEVLNHWLKEKSPTEEKFQAAVERFVYSCAGYCVATFVLGIGDRHNDNIMITETGNLFHIDFGHILGNYKSFLGINKERVPFVLTPDFLFVMGTSGKKTSPHFQKFQDICVKAYLALRHHTNLLIILFSMMLMTGMPQLTSKEDIEYIRDALTVGKNEEDAKKYFLDQIEVCRDKGWTVQFNWFLHLVLGIKQGEKHSA
- effect of PI3Kγ RBD mutation on binding to Ras (N-Ras.mant-GMPPNP): tighter-binding
- binding to N-Ras.GDP (N-Ras.GDP): Neither the wild-type protein, the pseudo wild-type (V327A, see methods), nor the V223K mutant exhibit detectable binding
